In article PMC10821868:
Several values for one entry are separate records, joined by “and”; a condition that tells them apart may be missing. Equal values may be shown once.

Legend:
[1] = target: PKM2 (mouse (endogenous in ImKCs)) (UniProt P52480); experiment: cross-linking; DSS crosslinking followed by Western blotting, after DPI treatment; also with the ERK1/2 inhibitor SCH772984
[2] = target: PKM2 (mouse (endogenous in ImKCs)) (UniProt P52480); experiment: native gel or EMSA; ImKCs treated with vehicle or DPI (50 and 500 nM) for 1 h (also 6 and 12 h); proteins extracted in Native PAGE sample buffer with 1% digitonin, run on native PAGE, anti-PKM2 Western blotting

PKM2, P52480-1 1-531 (enzyme; other documents disagree on this pair), sequence (P52480 whole entry): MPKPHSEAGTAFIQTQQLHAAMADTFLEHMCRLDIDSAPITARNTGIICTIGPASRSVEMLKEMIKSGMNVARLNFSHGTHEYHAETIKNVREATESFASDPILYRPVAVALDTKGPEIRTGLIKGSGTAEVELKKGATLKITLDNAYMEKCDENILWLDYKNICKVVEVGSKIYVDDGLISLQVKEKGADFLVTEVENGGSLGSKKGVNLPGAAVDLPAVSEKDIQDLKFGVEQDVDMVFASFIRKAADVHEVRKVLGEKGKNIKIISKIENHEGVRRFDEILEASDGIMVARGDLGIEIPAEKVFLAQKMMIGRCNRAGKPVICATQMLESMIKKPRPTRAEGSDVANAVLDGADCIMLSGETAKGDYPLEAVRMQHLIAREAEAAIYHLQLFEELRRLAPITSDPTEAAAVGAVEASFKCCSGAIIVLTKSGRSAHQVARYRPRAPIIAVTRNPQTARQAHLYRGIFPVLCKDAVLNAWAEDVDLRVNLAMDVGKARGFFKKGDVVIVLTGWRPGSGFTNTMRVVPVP

stoichiometry N [1]: 2
stoichiometry N [2]: 2 and 4
Substance: PKM2, P52480-1 1-531 (enzyme; other documents disagree on this pair)
